Assays:
[1] = target: T1, D1 dopamine receptor (D1R) (Homo sapiens, UniProt P21728); test: Confocal trafficking and colocalization with D1R; assay type: cell-based; conditions: HEK-293 cells with stable D1R expression; dopamine 15 minutes
T1 construct: expressed in transfected cells
Method: Immunostaining and confocal microscopy. […] Twenty-four hours post-transfection, cells were serum-starved for 4 h, and either left untreated or treated with respective agonists for the indicated times in the Figure descriptions. After stimulation, cells were fixed with 5% formaldehyde diluted in phosphate-buffered saline (PBS), permeabilized with 0.1% Triton in PBS containing 2% bovine serum albumin for 20 min and incubated at room temperature with appropriate primary antibody. The next day, cells were washed three times with PBS and incubated with Alexa594 conjugated secondary antibody for 1 h, followed by repeated washes using PBS. Confocal images were acquired using Zeiss LSM510 laser-scanning microscope using multitrack sequential with excitation (488 and 568 nm) and emission (BP 505-550 nm and LP 585 nm) filter sets. Images (1024×1024 pixels) were collected using either a 63× or 100× oil immersion lens. Images were processed for Figure presentation using Adobe Photoshop software, and any increase or decrease of brightness/contrast was applied to the entire image. The nuclear rim localization of YFP-βarrestin2-SUMO1 is readily visualized in cells with low to moderate expression of YFP-protein. In cells with high expression, this localization is present, and can be discerned by enlarging sections of the nuclear rim. […]

V2R [2] = target: T2, V2R (Homo sapiens, UniProt P30518); test: Co-immunoprecipitation of βarrestin2 constructs with HA-V2R; assay type: binding; conditions: HEK-293 cells stably expressing HA-V2R; AVP
T2 construct: HA (N); expressed in transfected cells
Method: Twenty-four hours post-transfection, cells were starved in PBS containing 10 mM HEPES (pH 7.4) for 1 h and stimulated with vehicle or agonist (isoproterenol, 1 μM; or AVP 1 μM, or Dopamine 1 μM) at 37° C. for desired times. After stimulations, β2AR stable cells were treated with the crosslinker DSP to a final concentration of 480 nM, and plates were rocked for 20 min at room temperature. Reaction was quenched by adding 25 μl of 1M Tris-Cl pH 8.5 per 1 mL volume of buffer in the dish and rocked for additional 5 min at room temperature.

β2AR = target: T3, β2AR (Homo sapiens, UniProt P07550); test: Chemical cross-linking and co-immunoprecipitation of βarrestin2 constructs with Flag-β2AR; assay type: binding; conditions: HEK-293 cells stably expressing FLAG-β2AR; 5 minutes of 1 μM isoproterenol; DSP cross-linking, co-IP, Western blot
T3 construct: Flag (N); expressed in transfected cells
Method: Cross-linking, Immunoprecipitation and Immunoblotting. […] Twenty-four hours post-transfection, cells were starved in PBS containing 10 mM HEPES (pH 7.4) for 1 h and stimulated with vehicle or agonist (isoproterenol, 1 μM; or AVP 1 μM, or Dopamine 1 μM) at 37° C. for desired times. After stimulations, β2AR stable cells were treated with the crosslinker DSP to a final concentration of […], and plates were rocked for 20 min at room temperature. Reaction was quenched by adding 25 μl of 1M Tris-Cl pH 8.5 per 1 mL volume of buffer in the dish and rocked for additional 5 min at room temperature.
Harvested cells were washed with ice-cold PBS (pH 7.4) and solubilized in an ice-cold lysis buffer (50 mM HEPES (pH 7.5), 2 mM EDTA, 250 mM NaCl, 10% (v/v) glycerol, and 0.5% (v/v) IGEPAL CA-630) that was supplemented with phosphatase and protease inhibitors (1 mM sodium orthovanadate, 1 mM sodium fluoride, 1 mM phenylmethylsulfonyl fluoride, 5 μg/ml leupeptin, 5 μg/ml aprotinin, 1 μg/ml pepstatin A, and 100 μM benzamidine). […] Cell lysate protein concentrations were determined by Bradford protein assay and equivalent μg of proteins were immunoprecipitated using anti-FLAG M2 antibody resin (for FIG. 2) or Anti-HA magnetic beads from Thermo Pierce (for FIG. 5, FIG. 7, and FIG. 8). […] HA-D2R or HA-V2R were detected using an anti-HA IgG (Cell Signaling Technologies). […]

V2R [3] = target: T2, V2R; test: BRET assay of βarrestin2 construct recruitment to V2R; assay type: cell-based; conditions: vasopressin stimulation, 15 min
Method: Changes following agonist treatment are expressed as a percentage of the BRET signal observed in unstimulated cells (top panel). The histogram (bottom panel) represents Bmax values of agonist-induced BRET as means±SEM of 3 independent experiments performed in duplicates. Lack of significance (“ns”) of changes in energy transfer was evaluated using unpaired t-test.
BRET assays. […] Titration assays were first completed, which allowed determination of the specificity of association among different interaction partners. See Nagi and Shenoy. 2019, supra; Gales et al. 2005. Nature methods 2:177-184; Nagi et al. 2015. Cellular and molecular life sciences: CMLS 72:3543-3557; Audet and Pineyro. 2011. Methods in molecular biology 756:149-163; and Rebois et al. 2006. Journal of cell science 119:2807-2818. […] BRET readings were acquired using Synergy Neo2 plate reader and obtained 5 min after manual addition of Rluc substrate, coelenterazine h (Promega) to a final concentration of 5 μM.
The BRET signal generated was determined by calculating the ratio of light emitted by YFP (520-550 nm) over the light emitted by Rluc (440-480 nm). These values were then corrected by subtracting the background signal (detected when the Rluc-tagged construct was expressed without acceptor) from the BRET signal detected in cells co-expressing both donor and acceptor constructs. […]

T1 sequence (P21728 whole entry): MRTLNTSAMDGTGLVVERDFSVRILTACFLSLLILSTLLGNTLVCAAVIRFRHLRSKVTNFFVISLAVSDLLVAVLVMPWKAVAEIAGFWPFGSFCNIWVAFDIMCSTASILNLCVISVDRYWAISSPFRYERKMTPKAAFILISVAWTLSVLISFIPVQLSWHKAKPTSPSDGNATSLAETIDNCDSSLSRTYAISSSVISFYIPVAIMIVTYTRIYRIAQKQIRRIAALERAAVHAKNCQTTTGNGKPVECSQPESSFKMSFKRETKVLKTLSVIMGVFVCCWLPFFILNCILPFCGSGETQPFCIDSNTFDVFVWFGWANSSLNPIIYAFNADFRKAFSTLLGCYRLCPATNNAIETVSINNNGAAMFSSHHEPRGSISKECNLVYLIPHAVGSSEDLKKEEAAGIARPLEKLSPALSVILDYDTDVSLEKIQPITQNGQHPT

## βarrestin2-SUMO1: rat βarrestin2 polypeptide fused to human SUMO1 (SEQ ID NO:1); used YFP- or Flag-tagged
[1]
  association with D1R after dopamine activation (confocal): strongly and stably
V2R [2]
  binding with agonist activated V2Rs by co-immunoprecipitation: equivalent binding
β2AR
  binding to activated β2AR relative to WT βarrestin2: 2-3 fold
V2R [3]
  magnitude of interaction with activated V2R defined by BRET, versus βarrestin2: No significant differences

Source: US20230227514A1, “BETA-ARRESTIN COMPOSITIONS AND ASSOCIATED METHODS” (Duke University, priority 2020, published 2023)
